This note sets out measurements from PMC12604781 (PLOS Pathogens, 2025).

As a reminder, the Kd is the equilibrium constant for the complex coming apart. A high value points to a looser complex.

This assay addresses SUMO-PRV peptide AB (pseudorabies virus (PRV)). As to the kind of experiment: ITC.

The substance “pcGAS^CT (C-terminus, catalytic domain of porcine cGAS) (domain or fragment)” came in with a dissociation constant (Kd) of 2920 nM.
